Experiment [1] deals with MHC class II molecules on Daudi B cells. Briefly: 51Cr Daudi cell adhesion to transfected Cos-7 cells.
For experiment [2] the target is unchanged. Briefly: 51Cr Daudi cell adhesion to transfected Cos-7 cells; cpm relative to wild-type, background not subtracted.

A value given as a limit tells only on which side of the number the result lay.

B1: LAG-3 mutant R75E (receptor)
chain: LQPGAEVPVVWAQEGAPAQLPCSPTIPLQDLSLLRRAGVTWQHQPDSGPPAAAPGHPLAPGPHPAAPSSWGPRPERYTVLSVGPGGLRSGRLPLQPRVQLDERGRQRGDFSLWLRPARRADAGEYRAAVHLRDRALSCRLRLRLGQASMTASPPGSLRASDWVILNCSFSRPDRPASVHWFRNRGQGRVPVRESPHHHLAESFLFLPQVSPMDSGPWGCILTYRDGFNVSIMYNLTVLGLEPPTPLTVYAGAGSRVGLPCRLPAGVGTRSFLTAKWTPPGGGPDLLVTGDNGDFTLRLEDVSQAQAGTYTCHIHLQEQQLNATVTLAIITVTPKSFGSPGSLGKLLCEVTPVSGQERFVWSSLDTPSQRSFSGPWLEAQEAQLLSQPWQCQLYQGERLLGAAVYFTELSSPGAQRSGRAPGALPAGHLLLFLTLGVLSLLLLVTGAFGFHLWRRQWRPRRFSALEQGIHPRRLRAR
With B1, the fold increase of binding against wild-type LAG-3 in experiment [1] is above 3 fold. The Adhesion (relative to wild-type LAG-3) in experiment [2] is 4.1.

B2: LAG-3 mutant H56F (receptor)
chain: LQPGAEVPVVWAQEGAPAQLPCSPTIPLQDLSLLRRAGVTWQHQPDSGPPAAAPGFPLAPGPHPAAPSSWGPRPRRYTVLSVGPGGLRSGRLPLQPRVQLDERGRQRGDFSLWLRPARRADAGEYRAAVHLRDRALSCRLRLRLGQASMTASPPGSLRASDWVILNCSFSRPDRPASVHWFRNRGQGRVPVRESPHHHLAESFLFLPQVSPMDSGPWGCILTYRDGFNVSIMYNLTVLGLEPPTPLTVYAGAGSRVGLPCRLPAGVGTRSFLTAKWTPPGGGPDLLVTGDNGDFTLRLEDVSQAQAGTYTCHIHLQEQQLNATVTLAIITVTPKSFGSPGSLGKLLCEVTPVSGQERFVWSSLDTPSQRSFSGPWLEAQEAQLLSQPWQCQLYQGERLLGAAVYFTELSSPGAQRSGRAPGALPAGHLLLFLTLGVLSLLLLVTGAFGFHLWRRQWRPRRFSALEQGIHPRRLRAR
As to B2, the Adhesion (relative to wild-type LAG-3) in experiment [2] was determined as 0.89.

B3: LAG-3 mutant R88A (receptor)
chain: LQPGAEVPVVWAQEGAPAQLPCSPTIPLQDLSLLRRAGVTWQHQPDSGPPAAAPGHPLAPGPHPAAPSSWGPRPRRYTVLSVGPGGLASGRLPLQPRVQLDERGRQRGDFSLWLRPARRADAGEYRAAVHLRDRALSCRLRLRLGQASMTASPPGSLRASDWVILNCSFSRPDRPASVHWFRNRGQGRVPVRESPHHHLAESFLFLPQVSPMDSGPWGCILTYRDGFNVSIMYNLTVLGLEPPTPLTVYAGAGSRVGLPCRLPAGVGTRSFLTAKWTPPGGGPDLLVTGDNGDFTLRLEDVSQAQAGTYTCHIHLQEQQLNATVTLAIITVTPKSFGSPGSLGKLLCEVTPVSGQERFVWSSLDTPSQRSFSGPWLEAQEAQLLSQPWQCQLYQGERLLGAAVYFTELSSPGAQRSGRAPGALPAGHLLLFLTLGVLSLLLLVTGAFGFHLWRRQWRPRRFSALEQGIHPRRLRAR
In experiment [2], B3 registered an Adhesion (relative to wild-type LAG-3) of 0.18.

B4: LAG-3 mutant R107K (receptor)
chain: LQPGAEVPVVWAQEGAPAQLPCSPTIPLQDLSLLRRAGVTWQHQPDSGPPAAAPGHPLAPGPHPAAPSSWGPRPRRYTVLSVGPGGLRSGRLPLQPRVQLDERGRQKGDFSLWLRPARRADAGEYRAAVHLRDRALSCRLRLRLGQASMTASPPGSLRASDWVILNCSFSRPDRPASVHWFRNRGQGRVPVRESPHHHLAESFLFLPQVSPMDSGPWGCILTYRDGFNVSIMYNLTVLGLEPPTPLTVYAGAGSRVGLPCRLPAGVGTRSFLTAKWTPPGGGPDLLVTGDNGDFTLRLEDVSQAQAGTYTCHIHLQEQQLNATVTLAIITVTPKSFGSPGSLGKLLCEVTPVSGQERFVWSSLDTPSQRSFSGPWLEAQEAQLLSQPWQCQLYQGERLLGAAVYFTELSSPGAQRSGRAPGALPAGHLLLFLTLGVLSLLLLVTGAFGFHLWRRQWRPRRFSALEQGIHPRRLRAR
Take B4: the Adhesion (relative to wild-type LAG-3) in experiment [2] was 1.02.

B5: LAG-3 mutant H63F (receptor)
chain: LQPGAEVPVVWAQEGAPAQLPCSPTIPLQDLSLLRRAGVTWQHQPDSGPPAAAPGHPLAPGPFPAAPSSWGPRPRRYTVLSVGPGGLRSGRLPLQPRVQLDERGRQRGDFSLWLRPARRADAGEYRAAVHLRDRALSCRLRLRLGQASMTASPPGSLRASDWVILNCSFSRPDRPASVHWFRNRGQGRVPVRESPHHHLAESFLFLPQVSPMDSGPWGCILTYRDGFNVSIMYNLTVLGLEPPTPLTVYAGAGSRVGLPCRLPAGVGTRSFLTAKWTPPGGGPDLLVTGDNGDFTLRLEDVSQAQAGTYTCHIHLQEQQLNATVTLAIITVTPKSFGSPGSLGKLLCEVTPVSGQERFVWSSLDTPSQRSFSGPWLEAQEAQLLSQPWQCQLYQGERLLGAAVYFTELSSPGAQRSGRAPGALPAGHLLLFLTLGVLSLLLLVTGAFGFHLWRRQWRPRRFSALEQGIHPRRLRAR
In the case of B5, the Adhesion (relative to wild-type LAG-3) in experiment [2] was determined as 0.91.

B6: wild-type LAG-3 (lymphocyte activation gene 3 protein) (receptor)
chain: LQPGAEVPVVWAQEGAPAQLPCSPTIPLQDLSLLRRAGVTWQHQPDSGPPAAAPGHPLAPGPHPAAPSSWGPRPRRYTVLSVGPGGLRSGRLPLQPRVQLDERGRQRGDFSLWLRPARRADAGEYRAAVHLRDRALSCRLRLRLGQASMTASPPGSLRASDWVILNCSFSRPDRPASVHWFRNRGQGRVPVRESPHHHLAESFLFLPQVSPMDSGPWGCILTYRDGFNVSIMYNLTVLGLEPPTPLTVYAGAGSRVGLPCRLPAGVGTRSFLTAKWTPPGGGPDLLVTGDNGDFTLRLEDVSQAQAGTYTCHIHLQEQQLNATVTLAIITVTPKSFGSPGSLGKLLCEVTPVSGQERFVWSSLDTPSQRSFSGPWLEAQEAQLLSQPWQCQLYQGERLLGAAVYFTELSSPGAQRSGRAPGALPAGHLLLFLTLGVLSLLLLVTGAFGFHLWRRQWRPRRFSALEQGIHPRRLRAR
B6 had an Adhesion (relative to wild-type LAG-3) in experiment [2] of 1.

B7: LAG-3 mutant D109E (receptor)
chain: LQPGAEVPVVWAQEGAPAQLPCSPTIPLQDLSLLRRAGVTWQHQPDSGPPAAAPGHPLAPGPHPAAPSSWGPRPRRYTVLSVGPGGLRSGRLPLQPRVQLDERGRQRGEFSLWLRPARRADAGEYRAAVHLRDRALSCRLRLRLGQASMTASPPGSLRASDWVILNCSFSRPDRPASVHWFRNRGQGRVPVRESPHHHLAESFLFLPQVSPMDSGPWGCILTYRDGFNVSIMYNLTVLGLEPPTPLTVYAGAGSRVGLPCRLPAGVGTRSFLTAKWTPPGGGPDLLVTGDNGDFTLRLEDVSQAQAGTYTCHIHLQEQQLNATVTLAIITVTPKSFGSPGSLGKLLCEVTPVSGQERFVWSSLDTPSQRSFSGPWLEAQEAQLLSQPWQCQLYQGERLLGAAVYFTELSSPGAQRSGRAPGALPAGHLLLFLTLGVLSLLLLVTGAFGFHLWRRQWRPRRFSALEQGIHPRRLRAR
Take B7: the Adhesion (relative to wild-type LAG-3) in experiment [2] is 0.18.

B8: LAG-3 double mutant D133A/R134A (receptor)
chain: LQPGAEVPVVWAQEGAPAQLPCSPTIPLQDLSLLRRAGVTWQHQPDSGPPAAAPGHPLAPGPHPAAPSSWGPRPRRYTVLSVGPGGLRSGRLPLQPRVQLDERGRQRGDFSLWLRPARRADAGEYRAAVHLRAAALSCRLRLRLGQASMTASPPGSLRASDWVILNCSFSRPDRPASVHWFRNRGQGRVPVRESPHHHLAESFLFLPQVSPMDSGPWGCILTYRDGFNVSIMYNLTVLGLEPPTPLTVYAGAGSRVGLPCRLPAGVGTRSFLTAKWTPPGGGPDLLVTGDNGDFTLRLEDVSQAQAGTYTCHIHLQEQQLNATVTLAIITVTPKSFGSPGSLGKLLCEVTPVSGQERFVWSSLDTPSQRSFSGPWLEAQEAQLLSQPWQCQLYQGERLLGAAVYFTELSSPGAQRSGRAPGALPAGHLLLFLTLGVLSLLLLVTGAFGFHLWRRQWRPRRFSALEQGIHPRRLRAR
In experiment [2], B8 had an Adhesion (relative to wild-type LAG-3) of 0.78.

B9: LAG-3 mutant H63A (receptor)
chain: LQPGAEVPVVWAQEGAPAQLPCSPTIPLQDLSLLRRAGVTWQHQPDSGPPAAAPGHPLAPGPAPAAPSSWGPRPRRYTVLSVGPGGLRSGRLPLQPRVQLDERGRQRGDFSLWLRPARRADAGEYRAAVHLRDRALSCRLRLRLGQASMTASPPGSLRASDWVILNCSFSRPDRPASVHWFRNRGQGRVPVRESPHHHLAESFLFLPQVSPMDSGPWGCILTYRDGFNVSIMYNLTVLGLEPPTPLTVYAGAGSRVGLPCRLPAGVGTRSFLTAKWTPPGGGPDLLVTGDNGDFTLRLEDVSQAQAGTYTCHIHLQEQQLNATVTLAIITVTPKSFGSPGSLGKLLCEVTPVSGQERFVWSSLDTPSQRSFSGPWLEAQEAQLLSQPWQCQLYQGERLLGAAVYFTELSSPGAQRSGRAPGALPAGHLLLFLTLGVLSLLLLVTGAFGFHLWRRQWRPRRFSALEQGIHPRRLRAR
In experiment [2], B9 showed an Adhesion (relative to wild-type LAG-3) of 0.83.

B10: LAG-3 mutant D225L (receptor)
chain: LQPGAEVPVVWAQEGAPAQLPCSPTIPLQDLSLLRRAGVTWQHQPDSGPPAAAPGHPLAPGPHPAAPSSWGPRPRRYTVLSVGPGGLRSGRLPLQPRVQLDERGRQRGDFSLWLRPARRADAGEYRAAVHLRDRALSCRLRLRLGQASMTASPPGSLRASDWVILNCSFSRPDRPASVHWFRNRGQGRVPVRESPHHHLAESFLFLPQVSPMDSGPWGCILTYRLGFNVSIMYNLTVLGLEPPTPLTVYAGAGSRVGLPCRLPAGVGTRSFLTAKWTPPGGGPDLLVTGDNGDFTLRLEDVSQAQAGTYTCHIHLQEQQLNATVTLAIITVTPKSFGSPGSLGKLLCEVTPVSGQERFVWSSLDTPSQRSFSGPWLEAQEAQLLSQPWQCQLYQGERLLGAAVYFTELSSPGAQRSGRAPGALPAGHLLLFLTLGVLSLLLLVTGAFGFHLWRRQWRPRRFSALEQGIHPRRLRAR
Molecule B10 displayed an Adhesion (relative to wild-type LAG-3) in experiment [2] of 0.89.

B11: LAG-3 mutant Q13A (receptor)
chain: LQPGAEVPVVWAAEGAPAQLPCSPTIPLQDLSLLRRAGVTWQHQPDSGPPAAAPGHPLAPGPHPAAPSSWGPRPRRYTVLSVGPGGLRSGRLPLQPRVQLDERGRQRGDFSLWLRPARRADAGEYRAAVHLRDRALSCRLRLRLGQASMTASPPGSLRASDWVILNCSFSRPDRPASVHWFRNRGQGRVPVRESPHHHLAESFLFLPQVSPMDSGPWGCILTYRDGFNVSIMYNLTVLGLEPPTPLTVYAGAGSRVGLPCRLPAGVGTRSFLTAKWTPPGGGPDLLVTGDNGDFTLRLEDVSQAQAGTYTCHIHLQEQQLNATVTLAIITVTPKSFGSPGSLGKLLCEVTPVSGQERFVWSSLDTPSQRSFSGPWLEAQEAQLLSQPWQCQLYQGERLLGAAVYFTELSSPGAQRSGRAPGALPAGHLLLFLTLGVLSLLLLVTGAFGFHLWRRQWRPRRFSALEQGIHPRRLRAR
In the case of B11, the Adhesion (relative to wild-type LAG-3) in experiment [2] is 0.92.

Values taken from patent US6482925.
